These results are taken from article PMC4895218, “Structural flexibility of the periplasmic protein, FlgA, regulates flagellar P-ring assembly in Salmonella enterica” (Scientific Reports, 2016).

Numbering of substitutions follows the chain as printed. Numbers in names are those of the source.

Test [1] has as its target T1, N-terminally His-tagged FlgI (Salmonella enterica serovar Typhimurium, UniProt P15930 20-365).
T1 construct: FlgI, flagellar P-ring component protein, Salmonella enterica serovar Typhimurium; Probably without its Sec signal peptide (surmise); also called His-FlgI; source: E. coli Origami2 (DE3), co-expressed, in cell extract (pull-down); purified (SPR); not shown: His tag, N-terminal, kept
T1 sequence (looked up): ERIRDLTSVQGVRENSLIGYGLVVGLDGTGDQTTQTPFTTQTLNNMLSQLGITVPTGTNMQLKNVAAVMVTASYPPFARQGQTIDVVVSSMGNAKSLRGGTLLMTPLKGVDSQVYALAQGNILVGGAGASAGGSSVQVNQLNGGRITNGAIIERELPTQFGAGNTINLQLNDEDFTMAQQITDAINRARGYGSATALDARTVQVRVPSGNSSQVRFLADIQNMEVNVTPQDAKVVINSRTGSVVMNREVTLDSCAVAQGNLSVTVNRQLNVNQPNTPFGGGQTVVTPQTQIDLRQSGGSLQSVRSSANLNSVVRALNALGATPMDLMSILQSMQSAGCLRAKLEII
The test is described as follows: SPR; Biacore T200, 25 °C; FlgA or FlgA R113C-S190C immobilised on CM5 chip by amine coupling, FlgI as analyte; 10 mM HEPES, 150 mM NaCl, 0.05% Surfactant P20, pH 7.4; two-state reaction model. Conditions: both partners purified. In general terms: SPR reads the build-up and loss of mass on a sensor chip optically.

Test [2] concerns the target T1, N-terminally His-tagged FlgI. The test is described as follows: SPR; Biacore T200, 25 °C; FlgI immobilised on CM5 chip by amine coupling, FlgA or FlgA R113C-S190C as analyte; 10 mM HEPES, 150 mM NaCl, 0.05% Surfactant P20, pH 7.4; two-state reaction model. The note with it: both partners purified.

B1: FlgA_(R113C-S190C) (purified, histidine tag removed) (natural protein)
chain: QDINAQLTTWFSQRLAGFSDEVVVTLRSSPNLLPSCEQPAFSMTGSAKLWGNVNVVARCANEKRYLQVNVQATGNYVAVAAPIARGGKLTPANVTLKRGRLDQLPPRTVLDICQIQDAVSLRDLAPGQPVQLTMIRQAWRVKAGQRVQVIANGEGFSVNAEGQAMNNAAVAQNARVRMTSGQIVSGTVDCDGNILINL
modifications: engineered disulfide bond between C113 and C190
notes: FlgA, Salmonella enterica serovar Typhimurium, with R113C and S190C; numbers count on: the mature protein; also called covalently closed form of FlgA; source: purified; N-terminal-fused histidine tag removed with thrombin prior to gel filtration; not shown: His tag, N-terminal, cleaved
As a reminder, the Kd is the constant that tells how readily two partners part at equilibrium. A high value points to weaker binding. With B1, the Kd in test [1] was found to be 166 nM; in test [2], 106 nM.

B2: FlgA (purified, histidine tag removed) (natural protein, Salmonella enterica serovar Typhimurium)
chain: B1 chain with C113R, C190S
notes: FlgA, Salmonella enterica serovar Typhimurium; numbers count on: the mature protein (Q1-L198); The crystallised FlgA was another construct (C-terminal hexa-histidine-tagged precursor purified from the periplasm of E. coli); source: purified; N-terminal-fused histidine tag removed with thrombin prior to gel filtration; not shown: His tag, N-terminal, cleaved
For the molecule B2, the Kd was determined as 354 nM in test [1] and 126 nM in test [2].
